Laboratory results reported in the supplement of paper PMC9233669.
Variants at the floor of the assay were thinned out.

Columns and labels:
[1] = tested on: biotinyl-Leu-oxazolone; assay: self-aminoacylation, catalytic enhancement (BLO) (fold over background); higher = more active; k-Seq, kA / k0A0; sequences stand for … in GGGAAUGGAUCCACAUCUACGAAUUC…UUCACUGCAGACUUGACGAAGCUG
Procedure, shortened: (§1)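 Catalytic enhancement equals the median kA over the uncatalyzed rate, the latter read from the low-activity peak of a bimodal Gaussian fit. Values of kA came from fitting each sequence's fraction reacted to a pseudo-first-order model, with 1000 bootstraps. Reacted RNA was captured with streptavidin and quantified by triplicate qPCR and Illumina sequencing after 90 minutes at room temperature with 2–1250 μM biotinyl-aminoacyl-oxazolone and 0.43 μM mutagenized RNA pools bearing a 21-nt variable region.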

[2] = tested on: biotinyl-Met-oxazolone; assay: self-aminoacylation, catalytic enhancement (BMO) (fold over background); higher = more active; k-Seq, kA / k0A0; sequences stand for … in GGGAAUGGAUCCACAUCUACGAAUUC…UUCACUGCAGACUUGACGAAGCUG
Procedure, shortened: as §1

[3] = tested on: biotinyl-Ile-oxazolone; assay: self-aminoacylation, catalytic enhancement (BIO) (fold over background); higher = more active; k-Seq, kA / k0A0; sequences stand for … in GGGAAUGGAUCCACAUCUACGAAUUC…UUCACUGCAGACUUGACGAAGCUG
Procedure, shortened: as §1

[4] = tested on: biotinyl-Trp-oxazolone; assay: self-aminoacylation, catalytic enhancement (BWO) (fold over background); higher = more active; k-Seq, kA / k0A0; sequences stand for … in GGGAAUGGAUCCACAUCUACGAAUUC…UUCACUGCAGACUUGACGAAGCUG
Procedure, shortened: as §1

[5] = tested on: biotinyl-Phe-oxazolone; assay: self-aminoacylation, catalytic enhancement (BFO) (fold over background); higher = more active; k-Seq, kA / k0A0; sequences stand for … in GGGAAUGGAUCCACAUCUACGAAUUC…UUCACUGCAGACUUGACGAAGCUG
Procedure, shortened: as §1

[6] = tested on: biotinyl-Val-oxazolone; assay: self-aminoacylation, catalytic enhancement (BVO) (fold over background); higher = more active; k-Seq, kA / k0A0; sequences stand for … in GGGAAUGGAUCCACAUCUACGAAUUC…UUCACUGCAGACUUGACGAAGCUG
Procedure, shortened: as §1

Sequence | self-aminoacylation [1] | self-aminoacylation [2] | self-aminoacylation [3] | self-aminoacylation [4] | self-aminoacylation [5] | self-aminoacylation [6]
AUUAGCCUGGUCAUCGAGAGA [Fam2.1 aminoacylation ribozyme variant] | 1.43 | 1.08 | 1.63 | 1.35 | 1.49 | 1.25
AAGCACCUAGGUCAUCGGGUG [Fam2.2 aminoacylation ribozyme variant] | 2.66 | 3.13 | 2.84 | 4.45 | 23.6 | 2.91
AUUACUCUCGUCAUCGAGUGA [Fam2.1 aminoacylation ribozyme variant] | 3.39 | 2.92 | 2.11 | 4.11 | 8.87 | 2.09
CCACACUUCUAGCAAUUGGUC [Fam1B.1 aminoacylation ribozyme variant] | 0.636 | 0.638 | 0.611 | 0.401 | 0.539 | 0.687
AUUACUCGGGUCAUCGAGUGA [Fam2.1 aminoacylation ribozyme variant] | 8.09 | 6.51 | 3.66 | 6.64 | 28.6 | 3.33
AUGCACCUAGGUCGUCGGGUG [Fam2.2 aminoacylation ribozyme variant] | 2.42 | 1.75 | 1.68 | 2.39 | 8.26 | 1.8
CUUCUUCAGACAAUCGGUCUG [Fam1A.1 aminoacylation ribozyme variant] | 0.606 | 0.651 | 0.76 | 0.559 | 0.958 | 0.751
AUUCACCUAGGUCAUCGUGUU [Fam2.2 aminoacylation ribozyme variant] | 0.905 | 0.887 | 0.899 | 1.62 | 0.729 | 0.73
AGGUUUGCUAGUAGUCGCAAG [Fam3.1 aminoacylation ribozyme variant] | 0.945 | 0.787 | 0.918 | 0.88 | 1.49 | 0.894
AAGUUCACUAAUAGUCGCAAG [Fam3.1 aminoacylation ribozyme variant] | 1.8 | 1.37 | 1.96 | 2.23 | 2.72 | 1.86
AGUCAGCUAGGUCAUCGGGUG [Fam2.2 aminoacylation ribozyme variant] | 6.1 | 5.84 | 5.42 | 9.92 | 58.2 | 5.51
GCACACUUCAAGCAAUCGGCC [Fam1B.1 aminoacylation ribozyme variant] | 3.49 | 2.99 | 3.36 | 6.96 | 4.88 | 3.45
AUGCACCUAGGUCCUCGGGUG [Fam2.2 aminoacylation ribozyme variant] | 5.43 | 3.7 | 3.44 | 5.64 | 27.2 | 3.19
GUUACCCUGGUCAUCGAGUGG [Fam2.1 aminoacylation ribozyme variant] | 58.4 | 57.2 | 15 | 50 | 402 | 17.4
AUUCACCGAGGUCAUCGCGUG [Fam2.2 aminoacylation ribozyme variant] | 19.1 | 16 | 7.64 | 14.8 | 117 | 9.71
CCACACUUCCAGCAGUCGGUC [Fam1B.1 aminoacylation ribozyme variant] | 1.11 | 1.14 | 1.24 | 0.613 | 0.659 | 1.29
AAGCUUGCUAAAAGUCGCAAG [Fam3.1 aminoacylation ribozyme variant] | 3.1 | 3.31 | 2.16 | 3.43 | 5.12 | 1.79
AUAACCCUGGUCAUCGAGAGA [Fam2.1 aminoacylation ribozyme variant] | 0.822 | 0.604 | 1.01 | 0.804 | 1.12 | 0.839
AAUCACCUAGGUCAUCGGGUU [Fam2.2 aminoacylation ribozyme variant] | 6.71 | 5.39 | 4.1 | 5.39 | 11.5 | 3.65
CUACUUCAAACCACCGGUCUG [Fam1A.1 aminoacylation ribozyme variant] | 0.795 | 1.09 | 1.03 | 1.25 | 0.963 | 0.954
CCACACUUCAAGCUAUCGGAC [Fam1B.1 aminoacylation ribozyme variant] | 0.681 | 0.654 | 0.982 | 0.582 | 0.941 | 1.01
AUUCACUUAGGUCCUCGGGUG [Fam2.2 aminoacylation ribozyme variant] | 6.52 | 4.58 | 3.12 | 4.66 | 35.8 | 2.96
AUUACACUGGUAAUCGAGUGA [Fam2.1 aminoacylation ribozyme variant] | 8.16 | 7.53 | 4.09 | 8.34 | 30.4 | 3.38
CCACACCUCAACCAAUCGGUC [Fam1B.1 aminoacylation ribozyme variant] | 1.28 | 1.37 | 1.11 | 3.13 | 3.45 | 1.02
AAAUUUGCUUAUAGUCGCAAG [Fam3.1 aminoacylation ribozyme variant] | 1.93 | 1.91 | 2.26 | 2.14 | 2.37 | 1.59
